Patent US20100093076A1, “SOLUBLE IL-27 RECEPTOR” (priority 2006, published 2010)
Values belong to the substance of their own block, whether it stands above or below them.

Legend:
[1] = molecular target: human IL-27 (single-chain molecule: EBI3 connected by its C-terminus to the N-terminus of IL-27 p28 via a polypeptide linker, amino-terminal peptide tag) (human) (UniProt Q14213); assay: cell-based or functional assay
[2] = molecular target: mouse IL-27 (single-chain molecule: EBI3 connected by its C-terminus to the N-terminus of IL-27 p28 via a polypeptide linker, amino-terminal peptide tag) (mouse) (UniProt O35228); assay: cell-based or functional assay
[3] = molecular target: mouse IL-27 (single-chain molecule: EBI3 connected by its C-terminus to the N-terminus of IL-27 p28 via a polypeptide linker, amino-terminal peptide tag) (mouse) (UniProt O35228); assay: SPR (BIACORE 3000), receptor captured by anti-mouse Fc antibody on CM5 chip, ligand as analyte, 1:1 model with mass transport
[4] = molecular target: human IL-27 (single-chain molecule: EBI3 connected by its C-terminus to the N-terminus of IL-27 p28 via a polypeptide linker, amino-terminal peptide tag) (human) (UniProt Q14213); assay: SPR (BIACORE 3000), receptor amine-coupled to CM5 chip, ligand as analyte, 1:1 model with mass transport
[5] = molecular target: mouse IL-27 (single-chain molecule: EBI3 connected by its C-terminus to the N-terminus of IL-27 p28 via a polypeptide linker, amino-terminal peptide tag) (mouse) (UniProt O35228); assay: as above

IC50 (nM), inhibition of IL-27-induced STAT3 phosphorylation, mouse spleens, huIL-27 at EC90 2 nM [1]: 9.3 nM | IC50 (nM), inhibition of IL-27-induced STAT3 phosphorylation, total human PBMCs, huIL-27 at EC90 2 nM [1]: 1370 nM | IC50 (nM), inhibition of IL-27-induced STAT3 phosphorylation, mouse spleens, muIL-27 at EC90 0.2 nM [2]: 0.18 nM | IC50 (nM), inhibition of IL-27-induced STAT3 phosphorylation, total human PBMCs, muIL-27 at EC90 2 nM [2]: 4.83 nM | IL-2 concentration (pg/ml), naive mouse CD4 T cells, 48 hr, mIL-27RA 0 ug/ml (zero point, no soluble receptor present) + mouse IL-27 10 ng/ml [2]: 1260 pg/mL | IL-2 concentration (pg/ml), naive mouse CD4 T cells, 48 hr, mIL-27RA 5 ug/ml + mouse IL-27 10 ng/ml [2]: 4020 pg/mL | IL-2 concentration (pg/ml), naive mouse CD4 T cells, 48 hr, mIL-27RA 10 ug/ml (second row) + mouse IL-27 10 ng/ml [2]: 4920 pg/mL | IL-2 concentration (pg/ml), naive mouse CD4 T cells, 48 hr, mIL-27RA 10 ug/ml + mouse IL-27 10 ng/ml [2]: 5220 pg/mL | IL-2 concentration (pg/ml), naive mouse CD4 T cells, 72 hr, mIL-27RA 0 ug/ml (zero point, no soluble receptor present) + mouse IL-27 10 ng/ml [2]: 234 pg/mL | IL-2 concentration (pg/ml), naive mouse CD4 T cells, 72 hr, mIL-27RA 5 ug/ml + mouse IL-27 10 ng/ml [2]: 5740 pg/mL | IL-2 concentration (pg/ml), naive mouse CD4 T cells, 72 hr, mIL-27RA 10 ug/ml (second row) + mouse IL-27 10 ng/ml [2]: 12200 pg/mL | IL-2 concentration (pg/ml), naive mouse CD4 T cells, 72 hr, mIL-27RA 10 ug/ml + mouse IL-27 10 ng/ml [2]: 6700 pg/mL | block of the ability of mouse IL-27 to inhibit IL-2 production by naive CD4 T cells [2]: 50% | Kd [3]: 0.12 nM | koff [3]: 0.0012 s⁻¹ | kon [3]: 1e+07 M⁻¹ s⁻¹
Substance: IL27RAm(mFc1), mouse IL27RA-Fc fusion polypeptide (extracellular domain of mouse IL27RA and wild type BALB/c mouse gamma2a constant region Fc tag)

IC50 (nM), inhibition of IL-27-induced STAT3 phosphorylation, mouse spleens, huIL-27 at EC90 2 nM [1]: 0.32 nM | IC50 (nM), inhibition of IL-27-induced STAT3 phosphorylation, total human PBMCs, huIL-27 at EC90 2 nM [1]: 0.95 nM | IC50 (nM), inhibition of IL-27-induced STAT3 phosphorylation, mouse spleens, muIL-27 at EC90 0.2 nM [2]: 0.14 nM | IC50 (nM), inhibition of IL-27-induced STAT3 phosphorylation, total human PBMCs, muIL-27 at EC90 2 nM [2]: 2.97 nM | IL-2 concentration (pg/ml), naive mouse CD4 T cells, 48 hr, hIL-27RA 0 ug/ml (zero point, no soluble receptor present) + mouse IL-27 10 ng/ml [2]: 1780 pg/mL | IL-2 concentration (pg/ml), naive mouse CD4 T cells, 48 hr, hIL-27RA 5 ug/ml + mouse IL-27 10 ng/ml [2]: 5780 pg/mL | IL-2 concentration (pg/ml), naive mouse CD4 T cells, 48 hr, hIL-27RA 10 ug/ml (second row) + mouse IL-27 10 ng/ml [2]: 5330 pg/mL | IL-2 concentration (pg/ml), naive mouse CD4 T cells, 48 hr, hIL-27RA 10 ug/ml + mouse IL-27 10 ng/ml [2]: 5770 pg/mL | IL-2 concentration (pg/ml), naive mouse CD4 T cells, 72 hr, hIL-27RA 0 ug/ml (zero point, no soluble receptor present) + mouse IL-27 10 ng/ml [2]: 1260 pg/mL | IL-2 concentration (pg/ml), naive mouse CD4 T cells, 72 hr, hIL-27RA 5 ug/ml + mouse IL-27 10 ng/ml [2]: 1870 pg/mL | IL-2 concentration (pg/ml), naive mouse CD4 T cells, 72 hr, hIL-27RA 10 ug/ml (second row) + mouse IL-27 10 ng/ml [2]: 17500 pg/mL | IL-2 concentration (pg/ml), naive mouse CD4 T cells, 72 hr, hIL-27RA 10 ug/ml + mouse IL-27 10 ng/ml [2]: 28600 pg/mL | block of the ability of mouse IL-27 to inhibit IL-2 production by naive CD4 T cells [2]: 50% | Kd [4]: 0.19 nM | koff [4]: 0.0019 s⁻¹ | kon [4]: 1e+07 M⁻¹ s⁻¹ | Kd [5]: 0.22 nM | koff [5]: 0.0018 s⁻¹ | kon [5]: 8.1e+06 M⁻¹ s⁻¹
Substance: human IL27RA-Fc5 fusion protein (Fc fusion)
